{
  "source": "patent US20040127421",
  "target": "T1, 19-mer (SEQ ID NO:11) PRCGNPDVANYNFFPRKPK",
  "T1 chain": "PRCGNPDVANYNFFPRKPK",
  "data": [
    {"protein": "Proenzyme pro-MMP-9 (protein) APRQRQSTLVLFPGDLRTNLTDRQLAEEYLYRYGYTRVAEMRGESKSLGPALLLLQKQLSLPETGELDSATLKAMRTPRCGVPDLGRFQTFEGDLKWHHHNITYWIQNYSEDLPRAVIDDAFARAFALWSAVTPLTFTRVYSRDADIVIQFGVAEHGDGYPFDGKDGLLAHAFPPGPGIQGDAHFDDDELWSLGKGVVVPTRFGNADGAACHFPFIFEGRSYSACTTDGRSDGLPWCSTTANYDTDDRFGFCPSERLYTQDGNADGKPCQFPFIFQGQSYSACTTDGRSDGYRWCATTANYDRDKLFGFCPTRADSTVMGGNSAGELCVFPFTFLGKEYSTCTSEGRGDGRLWCATTSNFDSDKKWGFCPDQGYSLFLVAAHEFGHALGLDHSSVPEALMYPMYRFTEGPPLHKDDVNGIRHLYGPRPEPEPRPPTTTTPQPTAPPTVCPTGPPTVHPSERPTAGPTGPPSAGPTGPPTAGPSTATTVPLSPVDDACNVNIFDAIAEIGNQLYLFKDGKYWRFSEGRGSRPQGPFLIADKWPALPRKLDSVFEERLSKKLFFFSGRQVWVYTGASVLGPRRLDKLGLGADVAQVTGALRSGRGKMLLFSGRRLWRFDVKAQMVDPRSASEVDRMFPGVPLDTHDVFQYREKAYFCQDRFYWRVSSRSELNQVDQVGYVTYDILQCPED", "values": [
      {"measurement": "conversion of pro-MMP-9 into prodomain and active enzyme by stromilysin (HPLC peak areas)", "value": "Titrating the standard splicing reaction with the 19-mer prevents the conversion of pro-MMP-9 into the prodomain and the active enzyme. Splicing can be inhibited in a dose dependent manner with micromolar 19-mer."}
    ]}
  ]
}
